# Laboratory results taken from patent US20200299375A1 (TILLOTTS PHARMA, published 2020).
# Where a chain is given by its changes, count along the chain named. In names and notes the source's numbering stands.
# B1: recombinant human TNFβ (ligand, UniProt P01374 35-205, looked up)
# chain: LPGVGLTPSAAQTARQHPKMHLAHSTLKPAAHLIGDPSKQNSLLWRANTDRAFLQDGFSLSNNSLLVPTSGIYFVYSQVVFSGKAYSPKATSSPLYLAHEVQLFSSQYPFHVPLLSSQKMVYPGLQEPWLHSMYHGAAFQLTQGDQLSTHTDGIPHLVLSPSTVFFGAFAL
# B2: 17-22-B03-sc08 (scFv)
# scFv: MDIQMTQSPSSLSASVGDRVTITCQASQSISSYLAWYQQKPGKAPKLLIYKASTLASGVPSRFSGSGSGTDFTLTISSLQPEDFATYYCQCTYYEPSYVFRAFGGGTKLTVLGGGGGSGGGGSGGGGSGGGGSEVQLVESGGGLVQPGGSLRLSCKASGIDFSAGYDMCWVRQAPGKGLEWIACIDSRREESDYASWAKGRFTISKDSSKNTVYLQMNSLRAEDTAVYYCARGGYGGDGVDGAFDPWGQGTLVTVSS
# notes: Humanized scFv, CDR-grafted light chain and structural-grafted heavy chain (CDR/STR); also called 17-22-B03-sc08 (CDR/STR); domain shuffled variant
# B3: 17-22-B03-sc02 (scFv)
# scFv: B2 scFv with T23K, D71E, S78D, Q80E, E82A
# notes: Humanized scFv, structural graft (STR); also called 17-22-B03-sc02 (STR); structural graft
# B4: 17-22-B03-sc12 (scFv)
# scFv: B2 scFv with C91S
# notes: Humanized scFv, CDR(C90S)/STR design; also called 17-22-B03-sc12 (CDR(C90S)/STR)
# Legend:
# 17-22-B03-sc02 = target: B3; test: competition ELISA, coated scFv, biotinylated TNFα (75 ng/mL), unlabeled TNFβ varied
# Procedure: (§1) For this purpose, the scFvs were coated on a 96-well Maxisorp ELISA plate at a concentration of 1 μg/mL. […] To control precision of the response, the dose-response curves were analyzed in duplicate.
# 17-22-B03-sc08 = target: B2; test: as above
# Procedure: as §1
# 17-22-B03-sc12 = target: B4; test: as above
# Procedure: as §1
# recombinant human TNFα [1] = target: T1, recombinant human TNFα (human, UniProt P01375 77-233); test: SPR (MASS-1), TNFα immobilised by amine coupling, scFv injected 45 to 1.4 nM
# T1 construct: also called tumor necrosis factor alpha; TNFαtrimer
# Procedure: (§2) In a second step, for the best performing scFvs, Single Injection Cycle Kinetics (SiCK) were measured from a single injection cycle by simultaneously injecting six analyte samples at different concentrations into each of the eight parallel channels in the MASS-1 system. […] The apparent dissociation (kd) and association (kₐ) rate constants and the apparent dissociation equilibrium constant (KD) were calculated with the MASS-1 analysis software (Analyzer, Sierra Sensors) using one-to-one Langmuir binding model and quality of the fits was monitored based on Chi², which is a measure for the quality of the curve fitting. The smaller the value for the Chi² the more accurate is the fitting to the one-to-one Langmuir binding model. For affinity screenings, results were deemed valid if the Chi² was below 10 for the concentration analyzed. In cases where several scFv concentrations were analyzed, results were deemed valid if the average Chi^t over all the concentrations tested was below 10.
# recombinant human TNFα [2] = target: T1, recombinant human TNFα; test: cell-based or functional assay
# [3] = target: T2, recombinant Cynomolgus monkey TNFα (Cynomolgus monkey (Macaca fascicularis), UniProt P79337 77-233); test: cell-based or functional assay
# Rhesus monkey TNFα [4] = target: T3, Rhesus monkey TNFα (Rhesus monkey (Macaca mulatta), UniProt P48094 77-233); test: cell-based or functional assay
# recombinant human TNFα [5] = target: T1, recombinant human TNFα; test: inhibition ELISA, biotinylated human TNFα (960 pM) on coated TNFRI-Fc, scFv varied
# Procedure: (§3) For the first inhibition ELISA, the extracellular domain of TNFRI fused to the Fc region of human IgG (R&D Systems, Cat. No. 372-RI) was coated on a 96-well Maxisorp ELISA at a concentration of 0.5 μg/mL. For the second inhibition ELISA, the extracellular domain of TNFRII fused to the Fc region of human IgG (R&D Systems, Cat. No. 726-R2) was coated at a concentration of 2 μg/mL. All subsequent steps were identical for both assays.
# recombinant human TNFβ = target: B1; test: competition ELISA, coated scFv, biotinylated TNFα, unlabeled TNFβ or TNFα as competitor
# Procedure: as §1
# recombinant human TNFα [6] = target: T1, recombinant human TNFα; test: inhibition ELISA, biotinylated human TNFα (960 pM) on coated TNFRII-Fc, scFv varied
# Procedure: as §3
# [7] = target: T2, recombinant Cynomolgus monkey TNFα; test: SPR (MASS-1), TNFα immobilised by amine coupling, scFv injected 45 to 1.4 nM
# Procedure: as §2
# Rhesus monkey TNFα [8] = target: T3, Rhesus monkey TNFα; test: as above
# Procedure: as §2
# Rhesus monkey TNFα [9] = target: T3, Rhesus monkey TNFα; test: SPR, TNFα immobilised, scFv injected
# recombinant human TNFα [10] = target: T1, recombinant human TNFα; test: inhibition ELISA: biotinylated human TNFα pre-incubated with the scFv, binding to coated TNFRI-Fc detected with streptavidin-HRP [panel 17-22-B03-sc12]
# Procedure: as §3
# recombinant human TNFα [11] = target: T1, recombinant human TNFα; test: inhibition ELISA: biotinylated human TNFα pre-incubated with the scFv, binding to coated TNFRII-Fc detected with streptavidin-HRP [panel 17-22-B03-sc12]
# Procedure: as §3
# T3 sequence (P48094 77-233 limits assumed): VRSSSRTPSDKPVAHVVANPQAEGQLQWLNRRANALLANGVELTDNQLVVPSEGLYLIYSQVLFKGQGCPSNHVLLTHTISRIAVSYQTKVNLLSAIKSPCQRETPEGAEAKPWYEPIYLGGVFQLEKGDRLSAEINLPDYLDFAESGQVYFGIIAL
# T2 sequence (P79337 77-233 limits assumed): as the sequence (P48094 77-233 limits assumed) above, with L37V counted along it
# T1 sequence (P01375 77-233 limits assumed): as the sequence (P48094 77-233 limits assumed) above, with T44R, N72T, L138R counted along it
binder,measurement,setting,value
B1,IC50,17-22-B03-sc02,> 1250 µg/mL
same,IC50,17-22-B03-sc08,> 1250 µg/mL
same,IC50,17-22-B03-sc12,> 1250 µg/mL
B2,Kd,recombinant human TNFα [1],0.061 nM
same,koff,recombinant human TNFα [1],6.8e-05 s⁻¹
same,kon,recombinant human TNFα [1],1.1e+06 M⁻¹ s⁻¹
same,"Potency (L929 assay), rel. IC50 (IC50 Infliximab/IC50 scFv, ng/mL)",recombinant human TNFα [2],26 ratio
same,"Potency (L929 assay), rel. IC90 (IC90 Infliximab/IC90 scFv, ng/mL)",recombinant human TNFα [2],26.6 ratio
same,"Species-specificity IC50 [ng/mL], L929 assay, human TNFα",recombinant human TNFα [2],0.4 ng/mL
same,"Species-specificity IC50 [ng/mL], L929 assay, cyno TNFα",[3],0.5 ng/mL
same,"Species-specificity IC50 [ng/mL], L929 assay, rhesus TNFα",Rhesus monkey TNFα [4],0.4 ng/mL
same,IC50,recombinant human TNFα [5],0.0212 µg/mL
same,"rel. IC50 (IC50 Infliximab/IC50 scFv), blocking of TNF-TNFRI interaction",recombinant human TNFα [5],2.3 ratio
same,"rel. IC90 (IC90 Infliximab/IC90 scFv), blocking of TNF-TNFRI interaction",recombinant human TNFα [5],2.5 ratio
same,"Target selectivity, rel. IC50 of TNFβ vs TNFα",recombinant human TNFβ,> 10000 fold
same,IC50,recombinant human TNFα [6],0.0353 µg/mL
same,"rel. IC50 (IC50 Infliximab/IC50 scFv), blocking of TNF-TNFRII interaction",recombinant human TNFα [6],2.8 ratio
same,"rel. IC90 (IC90 Infliximab/IC90 scFv), blocking of TNF-TNFRII interaction",recombinant human TNFα [6],2.7 ratio
B3,Kd,recombinant human TNFα [1],0.052 nM
same,koff,recombinant human TNFα [1],5.9e-05 s⁻¹
same,kon,recombinant human TNFα [1],1.1e+06 M⁻¹ s⁻¹
same,Kd,[7],0.05 nM
same,koff,[7],6e-05 s⁻¹
same,kon,[7],1.2e+06 M⁻¹ s⁻¹
same,Kd,Rhesus monkey TNFα [8],0.15 nM
same,koff,Rhesus monkey TNFα [8],0.00011 s⁻¹
same,kon,Rhesus monkey TNFα [8],710000 M⁻¹ s⁻¹
same,"Potency (L929 assay), rel. IC50 (IC50 Infliximab/IC50 scFv, ng/mL)",recombinant human TNFα [2],23.7 ratio
same,"Potency (L929 assay), rel. IC90 (IC90 Infliximab/IC90 scFv, ng/mL)",recombinant human TNFα [2],29.4 ratio
same,"Species-specificity IC50 [ng/mL], L929 assay, human TNFα",recombinant human TNFα [2],0.5 ng/mL
same,"Species-specificity IC50 [ng/mL], L929 assay, cyno TNFα",[3],0.6 ng/mL
same,"Species-specificity IC50 [ng/mL], L929 assay, rhesus TNFα",Rhesus monkey TNFα [4],0.3 ng/mL
same,IC50,recombinant human TNFα [5],0.0334 µg/mL
same,"rel. IC50 (IC50 Infliximab/IC50 scFv), blocking of TNF-TNFRI interaction",recombinant human TNFα [5],1.5 ratio
same,"rel. IC90 (IC90 Infliximab/IC90 scFv), blocking of TNF-TNFRI interaction",recombinant human TNFα [5],1.4 ratio
same,"Target selectivity, rel. IC50 of TNFβ vs TNFα",recombinant human TNFβ,> 10000 fold
same,fold difference in affinity against human TNFα,Rhesus monkey TNFα [9],~3 fold
same,IC50,recombinant human TNFα [6],0.0711 µg/mL
same,"rel. IC50 (IC50 Infliximab/IC50 scFv), blocking of TNF-TNFRII interaction",recombinant human TNFα [6],1.4 ratio
same,"rel. IC90 (IC90 Infliximab/IC90 scFv), blocking of TNF-TNFRII interaction",recombinant human TNFα [6],1.8 ratio
B4,Kd,recombinant human TNFα [1],0.048 nM
same,koff,recombinant human TNFα [1],4e-05 s⁻¹
same,kon,recombinant human TNFα [1],830000 M⁻¹ s⁻¹
same,Kd,[7],0.07 nM
same,koff,[7],5.2e-05 s⁻¹
same,kon,[7],750000 M⁻¹ s⁻¹
same,Kd,Rhesus monkey TNFα [8],0.24 nM
same,koff,Rhesus monkey TNFα [8],0.0002 s⁻¹
same,kon,Rhesus monkey TNFα [8],830000 M⁻¹ s⁻¹
same,"Potency (L929 assay), rel. IC50 (IC50 Infliximab/IC50 scFv, ng/mL)",recombinant human TNFα [2],13.4 ratio
same,"Potency (L929 assay), rel. IC90 (IC90 Infliximab/IC90 scFv, ng/mL)",recombinant human TNFα [2],11.7 ratio
same,"Species-specificity IC50 [ng/mL], L929 assay, human TNFα",recombinant human TNFα [2],0.6 ng/mL
same,"Species-specificity IC50 [ng/mL], L929 assay, cyno TNFα",[3],0.8 ng/mL
same,"Species-specificity IC50 [ng/mL], L929 assay, rhesus TNFα",Rhesus monkey TNFα [4],0.9 ng/mL
same,IC50 (read off the curve),recombinant human TNFα [10],~30 ng/mL
same,"rel. IC50 (IC50 Infliximab/IC50 scFv), blocking of TNF-TNFRI interaction",recombinant human TNFα [5],1.5 ratio
same,"Target selectivity, rel. IC50 of TNFβ vs TNFα",recombinant human TNFβ,> 10000 fold
same,IC50 (read off the curve),recombinant human TNFα [11],~30 ng/mL
same,"rel. IC50 (IC50 Infliximab/IC50 scFv), blocking of TNF-TNFRII interaction",recombinant human TNFα [6],2.1 ratio
